What all share (assay): Sialidase kinetic constants with soluble sialylglycoconjugate substrates
Format in all cases: biochemical, Chinese hamster
Common to all, as to settings: other: apparent; standard assay conditions; average of duplicates, relative error about 10%; 37.0 °C

Substrate in data set [1]: CC(=O)N[C@H]1[C@H]([C@H](O)[C@H](O)CO)O[C@@](OC[C@H]2O[C@@H](O[C@H]3[C@H](O)[C@@H](O)C(O)O[C@@H]3CO)[C@H](O)[C@@H](O)[C@H]2O)(C(=O)O)C[C@@H]1O
Experimental: (§1) Fluorescent sialidase assays: Standard assay conditions for monitoring the enzyme activity during purification using the fluorescent substrate analog are: 1.3 mM 4-MUNeu5Ac, 50 mM phosphate buffer, pH 6.8, 0.3 mg bovine serum albumin and varying amounts of enzyme in a total volume of 30 μl. After addition of enzyme the samples are incubated at 37° C. in a shaking water bath for 5 minutes. The reaction is terminated and the fluorescence of the liberated umbelliferone is enhanced by the addition of 2 ml of 80 mM glycine-carbonate buffer, pH 9.7. Quantification of the product is made by measuring the fluorescence of the samples with excitation at 365 nm and emission at 450 nm using a standard of 4-methyl umbelliferone. A unit of enzyme activity is defined as a μmol/min of sialic acid liberated.
(§2) Sialidase assays with natural substrates: When natural substrates are tested with the purified enzyme, the amount of released sialic acid is measured using the thiobarbituric acid assay as modified by Uchida [Uchida et al. J. Biochem., 82:1425 (1977)] using sialic acid as standard. The amount of sialic acid in control samples, which include a complete assay mixture incubated without added enzyme is subtracted from each determination. All samples are cleared by centrifugation (1,000×G, 10 min) prior to determining the absorbance at 540 nm.
(§3) Enzyme kinetic parameters: Assay conditions (time and added enzyme) are modified for each substrate so that initial reaction rates are measured. Kinetic parameters are obtained from double reciprocal plots of the substrate saturation curves [Segel, I. H. John Wiley, New York, Enzyme Kinetics, 18 (1975)].
Substrate in data set [2]: CC(=O)N[C@H]1[C@H]([C@H](O)[C@H](O)CO)O[C@@](O[C@H](CO)[C@@H](O)[C@@H]2OC(O)(C(=O)O)C[C@H](O)[C@H]2NC(C)=O)(C(=O)O)C[C@@H]1O
Experimental: as §1, §2, §3
Substrate in data set [3]: CC(=O)N[C@H]1[C@H]([C@H](O)[C@H](O)CO)O[C@@](O[C@H]2[C@@H](O)[C@@H](CO)O[C@@H](O[C@H]3[C@H](O)[C@@H](O)C(O)O[C@@H]3CO)[C@@H]2O)(C(=O)O)C[C@@H]1O
Experimental: as §1, §2, §3
Substrate in data set [4]: CC(=O)N[C@H]1[C@H]([C@H](O)[C@H](O)CO)O[C@@](Oc2ccc3c(C)cc(=O)oc3c2)(C(=O)O)C[C@@H]1O
Experimental: as §1, §2, §3

B1: CHO cell sialidase (Cricetulus griseus) (protein)
chain: MATCPVLQKETLFQTGDYAYRIPALIYLSKQKTLLAFAEKRLTKTDEHADLFVLRRGSYNADTHQVQWQAEEVVTQAYLEGHRSMSPCPLYDKQTRTLFLFFIAVRGQISEHHQLQTGVNVTRLCHITSTDHGKTWSAVQDLTDTTIGSTHQDWATFGVGPGHCLQLRNTAGSLLVPAYAYRKQPPIHAPAPSAFCFLSHDHGSTWELGHFVSQNSLECQVAEVGTGAERVVYLNARSCLGARVQAQSPNSGLDFQDNQVVSKLVEPPKGCHGSVIAFPNPTSKADALDVWLLYTHPTDSRKRTNLGVYLNQKPLDPTTWSAPTLLATGICAYSDLQNMGHGPDGSPQFGCLYESNNYEEIVFLMFTLKQAFPAVFGAQ
notes: The sialidase described was purified from the cell culture fluid of a single production cell line (CHO 14.16); endogenous in cells; host or cells: CHO 14.16 cells (purified from the cell culture fluid)
As usually defined, the Km is the concentration of substrate that gives half-maximal velocity. The Vmax is the top rate of the reaction or transport when substrate is in excess. As to B1, the Michaelis constant (Km) in data set [1] was 1200 µM; in data set [2], 3400 µM; in data set [3], 1300 µM; in data set [4], 400 µM. Moreover, the maximum rate (Vmax) in data set [1] was determined as 4 µmol/min/mg; in data set [2] it was 11 µmol/min/mg; in data set [3], 16 µmol/min/mg; in data set [4], 18 µmol/min/mg.

The values are drawn from patent US5928915A, “CHO cell sialidase by recombinant DNA technology” (Genentech, Inc., priority 1997, dated 1999).
